{"source": "patent US20190298850A1", "target": "IL-21 (human) (UniProt Q9HBE4)", "sequence (Q9HBE4 25-162 limits assumed)": "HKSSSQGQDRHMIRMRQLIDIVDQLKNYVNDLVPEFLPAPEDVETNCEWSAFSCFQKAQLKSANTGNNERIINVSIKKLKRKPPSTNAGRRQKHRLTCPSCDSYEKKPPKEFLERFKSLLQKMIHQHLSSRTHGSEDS", "test": "cell-based or functional assay", "data": [{"substance": "IL-21R-Ig fusion protein (from UniProt Q9HBE5 20-232) (Fc fusion)", "values": [{"measurement": "decrease in plasma cell differentiation of memory B cells co-cultured with blood PD-1hi CXCR5+ or PD-1hi CXCR5- CD4+ T cells", "value": 90, "unit": "%"}]}]}
